Experimental data reported in US20060269542A1, “Immunoliposome composition for targeting to a HER2 cell receptor” (priority 2005, published 2006).
Values after ≈ are worked out from the molar mass of the structure shown. Blank lines part the entries; values can stand above or below the molecule they belong to.

Legend:
[1] = tested on: SK-BR-3 human breast carcinoma cells; experiment: cells; format: cell-based; conditions: 10-min exposure, then 72 hours growth, read-out: IC50 (doxorubicin concentration resulting in 50% cell growth inhibition)
Method: SK-BR-3 human breast carcinoma cell line was purchased from American Tissue Type Culture Collection (ATCC, Manassas, Va.). Cells were maintained in in vitro culture in McCoy's 5A modified medium supplemented with 10% fatal bovine serum and were maintained in a humidified incubator at 37° C.
Cells were exposed for 10 minutes to doxorubicin (1.8 mg/mL) in free form, doxorubicin entrapped in PEGylated liposomes (2.06 mg/mL), or an immunoliposome formulation having 2 antibodies per liposome (1.86 mg/mL), 5 antibodies per liposome (2.12 mg/mL), 7.5 antibodies per liposome (1.99 mg/mL), or 15 antibodies per liposome (2 mg/mL).
Log-phase SK-BR-3 breast cancer cells were harvested using Versene (1:5000), resuspended in growth media at concentration of 5×10^4 cells/mL. […] At the end of incubation, the amount of viable cells was determined using the Promega CellTiter 96® Aqueous One Solution Cell Proliferation Assay (a tetrazolium based colorimetric method for determining the number of viable cells in proliferation, Madison, Wis.). […] The plates were then incubated for 3-4 hours after which absorbance was recorded at 490 nm with a microplate reader. Cell viability was calculated as % of untreated control using the formula: % Viability=(A−A0)/(A100−A0)×100% where A is the measured absorbance, A0 is the absorbance of the blanks, and A100 is the absorbance of the wells with untreated cells. […]

[2] = target: T1, HER2 receptor (human, UniProt P04626 23-1255); experiment: cell-based or functional assay
[3] = target: T1, HER2 receptor; experiment: 4 h incubation of immunoliposomes with SK-BR-3 cells (IHC 3+), wash, lysis, doxorubicin fluorescence
Method: SK-BR-3 or MCF-7 cells at 1.5×10⁵ cells/0.5 mL of growth medium per well were added to a 24-well plate. After overnight incubation for attachment and acclimation, cells were treated with immunoliposomes ([…], 15:1, 30:1, and 45:1 anti-HER2 antibodies:liposome), or liposomes at 0.015 mg/mL in 0.5 mL growth media/well in duplicates. The 24-well plates were then placed on a rotating platform inside the incubator with rotation at 40-60 rpm at 37° C., 5% CO₂, and 100% humidity for 4 hours. After incubation, cell medium were aspirated and cells were washed four times with Hank's Balanced Salt Solution (HBSS). After this, cells were lysed by adding 0.1 mL of 1% Triton X-100 to each well. The plates were swirled to mix and placed on a rotating platform for 15 minutes at room temperature. During this step, cells detached from the bottom of the plate and the cell nuclei formed visible clumps. Acid isopropanol (1.0 mL) were added to the wells containing the Triton X-100 solution and mixed by swirling or pipetting up and down until the visible clumps disappeared.
Doxorubicin content in the cell lysates was measured by a spectrofluorometer using an excitation wavelength of 470 nm and an emission wavelength of 590 nm. The spectrofluorometer settings were as follows: slit width 2 nm, integration time 1 second, photomultiplier voltage 950 V, and single wavelength acquisition mode. Fluorescence of the background cell lysate was subtracted and the amount of doxorubicin in the cell lysates was determined from the concurrently measured standards (10, 25, 50, 100, 250, 500, 1000, and 2500 ng of doxorubicin per sample) fit to a standard curve using quadratic polynomial regression. Cell uptake of doxorubicin was determined by interpolation from the standard curve.

[4] = target: extracellular domain of HER2 receptor (Homo sapiens, UniProt P04626); conditions: read-out: HER2 binding affinity (Kd); cited from earlier work

B1: anti-Her2 immunoliposome formulation with scFv/liposome ratio of 5 (scFv)
scFv: QVQLVESGGGLVQPGGSLRLSCAASGFTFRSYAMSWVRQAPGKGLEWVSAISGRGDNTYYADSVKGRFTISRDNSKNTLYLQMNSLRAEDTAVYYCAKMTSNAFAFDYWGQGTLVTVSSGGGGSGGGGSGGGGSQSVLTQPPSVSGAPGQRVTISCTGSSSNIGAGYGVHWYQQLPGTAPKLLIYGNTNRPSGVPDRFSGFKSGTSASLAITGLQAEDEADYYCQSYDSSLSGWVFGGGTKLTVLG
modifications: terminal cysteine coupled through a thioether linkage to maleimide-PEG-DSPE
IC50 (cytotoxicity, SK-BR-3 cells, 10-min exposure, doxorubicin concentration) [2]: ~30 µg/mL

B3: Anti-HER2 Immunoliposomes (15:1) (scFv)
scFv: B1 scFv
modifications: terminal cysteine coupled through a thioether linkage to maleimide-PEG-DSPE
notes: On average 15 scFv per liposome; also called 15:1 immunoliposome formulation; immunoliposomes with 15 antibodies per liposome
Doxorubicin (pg/cell), cellular binding/uptake [3]: 8.35 pg/cell
IC50 (cytotoxicity, SK-BR-3 cells, 10-min exposure, doxorubicin concentration) [2]: ~3.9 µg/mL

B5: Anti-HER2 Immunoliposomes (7.5:1) (scFv)
scFv: B1 scFv
modifications: terminal cysteine coupled through a thioether linkage to maleimide-PEG-DSPE
notes: On average 7.5 scFv per liposome; also called 7.5:1 immunoliposome formulation; immunoliposomes containing 7.5 antibodies per liposome
Doxorubicin (pg/cell), cellular binding/uptake [3]: 6.02 pg/cell
IC50 (cytotoxicity, SK-BR-3 cells, 10-min exposure, doxorubicin concentration) [2]: ~16 µg/mL

B6: F5: single chain antibody fragment (scFv), 251 amino acids, binds extracellular domain of HER2 receptor, SEQ ID NO: 2 (protein, listed as Homo sapiens)
scFv: B1 scFv
Kd [4]: 150 to 300 nM

Other lines, results leading:

IC50 [1]: ~9.5 µg/mL (≈ 17.5 µM)
Molecule: COc1cccc2c1C(=O)c1c(O)c3c(c(O)c1C2=O)C[C@@](O)(C(=O)CO)C[C@@H]3O[C@H]1C[C@H](N)[C@H](O)[C@H](C)O1 [free doxorubicin, doxorubicin]

Doxorubicin (pg/cell), cellular binding/uptake [3]: 4.39 pg/cell
B2: Anti-HER2 Immunoliposomes (45:1) (scFv)
scFv: B1 scFv
modifications: terminal cysteine coupled through a thioether linkage to maleimide-PEG-DSPE
notes: On average 45 scFv per liposome; also called 45:1 immunoliposome formulation; F5 scFv immunoliposome

Doxorubicin (pg/cell), cellular binding/uptake [3]: 6.66 pg/cell
B4: Anti-HER2 Immunoliposomes (30:1) (scFv)
scFv: B1 scFv
modifications: terminal cysteine coupled through a thioether linkage to maleimide-PEG-DSPE
notes: On average 30 scFv per liposome; also called 30:1 immunoliposome formulation; F5 scFv immunoliposome
